According to patent US7851436 (WASHINGTON UNIVERSITY IN ST LOUIS, dated 2010):

Columns and labels:
[1] = biological target: T1, β1 integrin (human, UniProt P05556 21-798); experiment: GST pull-down from surface-biotinylated Ch-1 lysate, Western blot (FIG. 3K)
T1 construct: whole, on cells; Probed by Western blot in the material pulled out by PIIBNP
Method: (§1) Cell Surface labeling and GST Pull-down Assay. Ch-1 cells were incubated with EZ-link Sulfo-NHS-Biotin reagent for 30 mins. according to the product instruction (Sigma). After 3 washes with 0.1 M glycine in PBS, the cells were lysed with a lysis buffer described above. […] The membrane was washed and incubated with antibodies and then incubated with a secondary antibody coupled to horseradish peroxidase. The antibody complex was visualized by enhanced chemiluminescence.

[2] = biological target: T2, α4 integrin (human, UniProt P13612 34-1032); experiment: GST pull-down from surface-biotinylated Ch-1 lysate, Western blot (data not shown)
T2 construct: whole, on cells; The antibody lists in the methods name α2, α3 and α5 but not α4
T2 sequence (looked up): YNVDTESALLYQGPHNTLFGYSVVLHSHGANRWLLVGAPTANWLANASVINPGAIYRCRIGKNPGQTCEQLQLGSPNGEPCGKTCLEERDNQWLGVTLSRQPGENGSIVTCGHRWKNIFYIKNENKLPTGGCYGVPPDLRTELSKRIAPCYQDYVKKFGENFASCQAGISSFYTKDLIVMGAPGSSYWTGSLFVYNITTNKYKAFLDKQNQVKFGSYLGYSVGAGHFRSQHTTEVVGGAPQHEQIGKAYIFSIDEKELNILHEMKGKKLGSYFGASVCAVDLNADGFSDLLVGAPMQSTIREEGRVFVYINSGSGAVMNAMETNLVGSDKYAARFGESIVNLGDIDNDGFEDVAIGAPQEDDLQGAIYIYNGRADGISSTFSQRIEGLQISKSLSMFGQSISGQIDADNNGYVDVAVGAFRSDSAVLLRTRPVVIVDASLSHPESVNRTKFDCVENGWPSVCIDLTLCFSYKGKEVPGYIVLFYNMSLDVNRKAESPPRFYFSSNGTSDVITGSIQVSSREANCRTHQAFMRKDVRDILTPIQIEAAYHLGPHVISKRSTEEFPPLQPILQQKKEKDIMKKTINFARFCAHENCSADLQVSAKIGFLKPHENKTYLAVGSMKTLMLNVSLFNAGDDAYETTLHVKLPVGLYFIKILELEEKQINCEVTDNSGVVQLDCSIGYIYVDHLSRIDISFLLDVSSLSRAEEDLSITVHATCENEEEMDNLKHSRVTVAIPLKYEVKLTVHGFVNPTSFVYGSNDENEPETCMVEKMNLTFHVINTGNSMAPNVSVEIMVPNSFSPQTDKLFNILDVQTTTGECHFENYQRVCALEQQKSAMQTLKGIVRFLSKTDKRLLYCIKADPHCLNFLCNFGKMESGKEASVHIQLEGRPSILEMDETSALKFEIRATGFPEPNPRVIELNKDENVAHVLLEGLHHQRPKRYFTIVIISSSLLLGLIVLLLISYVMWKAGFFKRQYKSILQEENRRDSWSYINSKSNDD

[3] = biological target: T3, α5 integrin (human, UniProt P08648 42-1049); experiment: as above
T3 construct: whole, on cells
T3 sequence (P08648 42-1049): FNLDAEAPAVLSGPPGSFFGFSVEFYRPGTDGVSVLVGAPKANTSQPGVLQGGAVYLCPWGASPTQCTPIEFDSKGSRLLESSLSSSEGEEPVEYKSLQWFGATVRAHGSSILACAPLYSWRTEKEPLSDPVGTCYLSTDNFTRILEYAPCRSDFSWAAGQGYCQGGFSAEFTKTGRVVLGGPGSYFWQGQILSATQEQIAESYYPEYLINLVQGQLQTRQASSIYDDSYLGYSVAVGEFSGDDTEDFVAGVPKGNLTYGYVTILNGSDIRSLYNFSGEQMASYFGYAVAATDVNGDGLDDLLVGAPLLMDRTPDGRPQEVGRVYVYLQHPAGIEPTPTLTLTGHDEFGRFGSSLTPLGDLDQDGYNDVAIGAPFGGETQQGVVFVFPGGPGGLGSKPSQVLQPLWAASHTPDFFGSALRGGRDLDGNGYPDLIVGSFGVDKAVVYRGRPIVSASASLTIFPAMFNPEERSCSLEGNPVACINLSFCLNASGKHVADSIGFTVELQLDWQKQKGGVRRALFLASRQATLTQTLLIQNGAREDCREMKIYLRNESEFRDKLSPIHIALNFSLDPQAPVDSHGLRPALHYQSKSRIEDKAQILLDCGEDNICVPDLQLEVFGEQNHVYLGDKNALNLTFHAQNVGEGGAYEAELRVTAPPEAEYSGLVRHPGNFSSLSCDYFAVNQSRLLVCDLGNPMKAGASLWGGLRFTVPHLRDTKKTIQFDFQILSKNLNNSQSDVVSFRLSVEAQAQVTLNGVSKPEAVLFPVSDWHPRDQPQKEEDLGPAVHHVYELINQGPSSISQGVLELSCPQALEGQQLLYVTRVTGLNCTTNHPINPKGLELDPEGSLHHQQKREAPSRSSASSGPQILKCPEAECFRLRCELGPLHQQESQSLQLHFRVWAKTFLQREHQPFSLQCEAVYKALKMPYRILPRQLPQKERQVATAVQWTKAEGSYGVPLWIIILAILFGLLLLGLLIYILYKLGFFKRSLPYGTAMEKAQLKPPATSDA
Method: as §1

Measured: binding result

T1 sequence (P05556 21-798): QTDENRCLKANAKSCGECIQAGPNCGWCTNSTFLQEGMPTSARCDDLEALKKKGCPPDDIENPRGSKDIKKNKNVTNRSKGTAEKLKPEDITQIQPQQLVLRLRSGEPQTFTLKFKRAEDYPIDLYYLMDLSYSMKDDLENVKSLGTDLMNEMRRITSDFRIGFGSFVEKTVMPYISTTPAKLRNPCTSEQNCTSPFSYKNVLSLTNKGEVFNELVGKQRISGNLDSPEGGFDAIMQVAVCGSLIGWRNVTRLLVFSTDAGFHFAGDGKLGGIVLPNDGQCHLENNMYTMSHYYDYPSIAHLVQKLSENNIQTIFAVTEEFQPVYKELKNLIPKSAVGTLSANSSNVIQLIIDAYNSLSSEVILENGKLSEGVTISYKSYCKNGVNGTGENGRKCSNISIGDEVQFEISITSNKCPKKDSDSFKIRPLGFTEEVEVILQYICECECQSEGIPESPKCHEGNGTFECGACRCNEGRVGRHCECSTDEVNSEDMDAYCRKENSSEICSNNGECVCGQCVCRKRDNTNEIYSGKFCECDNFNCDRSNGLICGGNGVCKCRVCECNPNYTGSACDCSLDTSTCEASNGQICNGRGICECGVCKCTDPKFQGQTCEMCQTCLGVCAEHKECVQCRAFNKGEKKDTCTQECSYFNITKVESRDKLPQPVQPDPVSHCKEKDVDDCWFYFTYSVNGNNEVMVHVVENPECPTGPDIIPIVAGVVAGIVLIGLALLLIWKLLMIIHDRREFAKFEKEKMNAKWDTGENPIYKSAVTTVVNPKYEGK

B1: GST-PIIBNP (GST fusion of human Type IIB collagen amino propeptide, exons 3-8) (ligand)
chain: not shown
notes: domain: PIIBNP (exons 3-8); Expressed in E. coli BL21 (DE3) as a GST fusion; also called Type IIB propeptide; PPIIBNP; not shown: glutathione S-transferase (GST) tag encoded by the pGEX-4T-2 vector, thrombin-cleavable
no binding: all assays above
